Assay results from paper PMC9490328, “Characterization and structure of the human lysine-2-oxoglutarate reductase domain, a novel therapeutic target for treatment of glutaric aciduria type 1” (Open Biology, 2022).
Values belong to the molecule of their own block, whether it stands above or below them.

Legend:
[1] = molecular target: T1, 2-aminoadipic semialdehyde synthase (AASS), lysine-2-oxoglutarate reductase (LOR) domain (Homo sapiens, UniProt Q9UDR5); assay: spectrophotometric LOR enzyme assay ([…] nm, NADPH consumption); assay type: biochemical
T1 construct: recombinant LOR domain (amino acids 21-470)
T1 sequence (Q9UDR5 21-470): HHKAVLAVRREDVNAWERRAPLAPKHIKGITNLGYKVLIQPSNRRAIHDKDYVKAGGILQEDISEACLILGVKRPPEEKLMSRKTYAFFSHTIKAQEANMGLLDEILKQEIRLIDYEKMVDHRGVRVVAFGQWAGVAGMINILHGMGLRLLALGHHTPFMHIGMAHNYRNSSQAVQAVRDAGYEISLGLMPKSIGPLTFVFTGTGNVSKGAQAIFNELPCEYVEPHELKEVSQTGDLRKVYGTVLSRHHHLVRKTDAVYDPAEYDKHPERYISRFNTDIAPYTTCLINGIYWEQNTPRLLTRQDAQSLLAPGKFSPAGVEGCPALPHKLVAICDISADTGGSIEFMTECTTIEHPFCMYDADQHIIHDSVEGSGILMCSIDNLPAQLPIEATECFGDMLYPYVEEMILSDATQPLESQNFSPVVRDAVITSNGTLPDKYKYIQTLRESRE

[2] = molecular target: T2, 2-aminoadipic semialdehyde synthase (AASS), lysine-2-oxoglutarate reductase (LOR) domain (Homo sapiens, UniProt Q9UDR5); assay: X-ray crystal structure of NEM-alkylated LOR; also activation in enzyme assay and immunoblot with anti-NEM antibody; assay type: binding
T2 construct: LOR short construct (amino acids 21-451)
T2 sequence (Q9UDR5 21-451): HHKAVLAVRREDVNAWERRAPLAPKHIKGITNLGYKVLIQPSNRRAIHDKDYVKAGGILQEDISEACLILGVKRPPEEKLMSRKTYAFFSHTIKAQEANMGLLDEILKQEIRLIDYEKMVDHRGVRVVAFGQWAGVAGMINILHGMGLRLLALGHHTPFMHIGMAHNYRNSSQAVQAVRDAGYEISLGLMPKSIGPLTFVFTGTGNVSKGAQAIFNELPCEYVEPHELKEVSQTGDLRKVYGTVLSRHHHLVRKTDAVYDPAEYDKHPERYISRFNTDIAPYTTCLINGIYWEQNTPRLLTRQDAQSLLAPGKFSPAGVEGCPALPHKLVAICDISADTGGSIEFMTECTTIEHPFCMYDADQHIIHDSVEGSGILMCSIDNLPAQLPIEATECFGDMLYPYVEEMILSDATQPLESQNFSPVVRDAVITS

[3] = substrate: O=C(O)CCC(=O)C(=O)O; assay: purified protein; settings: NADPH; pH 8.8
[4] = substrate: NC(=O)C1=CN([C@@H]2O[C@H](COP(=O)(O)OP(=O)(O)OC[C@H]3O[C@@H](n4cnc5c(N)ncnc54)[C@H](OP(=O)(O)O)[C@@H]3O)[C@@H](O)[C@H]2O)C=CC1; assay: purified protein; settings: predicted: Ser […] and Arg […] interact with the additional phosphate of NADPH; pH 8.8; varied: cofactor
[5] = substrate: NC(=O)c1ccc[n+]([C@@H]2O[C@H](COP(=O)(O)OP(=O)(O)OC[C@H]3O[C@@H](n4cnc5c(N)ncnc54)[C@H](OP(=O)(O)O)[C@@H]3O)[C@@H](O)[C@H]2O)c1; assay: purified protein; settings: pH 8.8; varied: cofactor
[6] = substrate: N[C@@H](CCCCN[C@@H](CCC(=O)O)C(=O)O)C(=O)O; assay: steady-state kinetics, reverse reaction (Km); also inhibits the forward LOR reaction in AASS-Myc-DDK lysates; assay type: biochemical, Homo sapiens; settings: NADP+ consistent with its ability to compete with lysine and 2-oxoglutarate; pH 8.8
[7] = substrate: NCCCC[C@H](N)C(=O)O; assay: steady-state kinetics, forward reaction (Km); assay type: biochemical, Homo sapiens; settings: NADPH; pH 8.8

IC50 [1]: 142 µM
Molecule: NC[C@@H]1CCCN1C(=O)c1ccc2c(c1)CCC(=O)N2 [S-105]

Molecule: CCN1C(=O)C=CC1=O [NEM, N-ethylmaleimide]
X-ray crystal structure of NEM-alkylated LOR; also activation in enzyme assay an [2]: crystal structure of NEM-alkylated LOR short construct (PDB 8E8V)

B1: 2-aminoadipic semialdehyde synthase (AASS), lysine-2-oxoglutarate reductase (LOR) domain (Homo sapiens) (protein)
chain: HHKAVLAVRREDVNAWERRAPLAPKHIKGITNLGYKVLIQPSNRRAIHDKDYVKAGGILQEDISEACLILGVKRPPEEKLMSRKTYAFFSHTIKAQEANMGLLDEILKQEIRLIDYEKMVDHRGVRVVAFGQWAGVAGMINILHGMGLRLLALGHHTPFMHIGMAHNYRNSSQAVQAVRDAGYEISLGLMPKSIGPLTFVFTGTGNVSKGAQAIFNELPCEYVEPHELKEVSQTGDLRKVYGTVLSRHHHLVRKTDAVYDPAEYDKHPERYISRFNTDIAPYTTCLINGIYWEQNTPRLLTRQDAQSLLAPGKFSPAGVEGCPALPHKLVAICDISADTGGSIEFMTECTTIEHPFCMYDADQHIIHDSVEGSGILMCSIDNLPAQLPIEATECFGDMLYPYVEEMILSDATQPLESQNFSPVVRDAVITSNGTLPDKYKYIQTLRESRE
notes: isolated LOR (amino acids 21-470)
Km [3]: 1400 ± 100 µM
Vmax [3]: 57.2 µmol/min/mg
Km [4]: 390 ± 20 µM
Vmax [4]: 65.4 µmol/min/mg
Km [5]: 420 ± 10 µM
Vmax [5]: 525 µmol/min/mg
Km [6]: 1700 ± 100 µM
Vmax [6]: 443 µmol/min/mg
Km [7]: 24000 ± 2000 µM
Vmax [7]: 28.8 µmol/min/mg
